Experimental data: the DeepSol protein solubility set

Experiment: soluble on expression in E. coli; label from the status in PepcDB or PDB records

Sequence | soluble on expression in E. coli
MAHHHHHHMQRMRRIGREEEAARLVWNHVSHCSSALLRQCIRRPNLLEEVTVALCRTMHRGISGRKDSWMGHRSLAVLRSGAALRQFTPALCIPLCAAALDCGVHFATVQQHVAEIYRWDERTERWVLNMVRLIADCHSALMRVPLNCSLHSSYMRGLVQRVAYELPTLSSTCSIEVQVPSRNKLLALWTIVNDDVANGRLRQLTCQLFLDPVARSAFKEMRLADEVDNCNSGTDGGGGSKCRVPRSTLKGLLNEEVFVSVAVNCTTEHAFAIFMNAFLSTRQARDKLRYMHLVLSEMPFESTDICPRCTTETGNCEVS | not soluble
MAHHHHHHMQRQVIRRLGNRSAFPLVAAVARSSQIRGAVRGDSGSRARVIPSFMCSLRAYSGGHHEEPSSRSGQYLLDKSDVLTRVLEVVKNFEKVDASKVTPESHFVKDLGLNSLDVVEVVFAIEQEFILDIPDHDAEKIQSIPDAVEYIAQNPMAK | soluble
MAHHHHHHMRADSVSQTRKQQPNSSALGDDGDDEGANGEVEGRPMRQCMHITDKEIVIKLQNWFCDSNEIAGEWEAAGKTESRRSGASSNLEISQTIPFHSSHKSSLGKSASSSTLRPSNTCIPADLSAPLDGAPSLEVSTTSETRKIHSARGPRADERASRPYRTPSTDAVRYCAVYLRHFATIHQQHPYENSRQEQLLPTLAPEPLTAPLVALLTPWERNFIYRDILGQTEEQVSRAMEIVEHSPNMSYTYPTPFLKVSGISRVLLVEPPAAERVALLLRVMRAAEVLQVPSLRSLCAAWCADFIVRASYGARDHFEAAALVRRCFQVQNDWSRKEMDCLKLENEWPVNEEEY | not soluble
MAHHHHHHMRGTTKPMLFLCSTAVRLNFFPLGLSAGPLNSHILLPRNNFDGRTTHGMKKIQGQSKDPQMVMSRDELKLRCEYCRFEWIHDTLCVRCPAQPSHDQREMWLHSTWMWGKQQPYKYYKYMPAVRNPRTGMPMAREDARGMNNERRGQGLTTRTLNLEKERRGISRDVSRIGQYNTRWKTRFPFPT | not soluble
MAHHHHHHMRNVVQKYLCRKNNFPGFCSKRNVCTLSQKKNLSAYKIYTDGLLHSEFSTELKTTNEVNRLPIFRVLDTEGNLLDGHNAPFEEEEIVKLYKQMVEFSIWDEIFYGIQRQGRISFYIVNDGEEGIQFGLGKVLTPDDHLYCQYRETGILLSRGFDYADIINQLFGNKYDEGKGRQMCICYTSKKLNIHTITTPLASQLSHAAGCGYALKLKNEKAVAATFCGDGSSSEGDFYAALNFAAVRESQTMFICKNNLYAISTSIKDQYRGDGVAPRALALGIESVRVDGNDLFATYLAAKKMREICTEESKPVFMEFMAYRYGHHSTSDDSSLYRPKEENDAWKKEGVHPISRLFLYLKNKKLYTDKDDELHRKAIKEKVLKELKKHESIKRYNIVGGLFENVYHEEDWNLKEQRESFEQFFKQHKGCYDTSKFEG | not soluble
MAHHHHHHMRRQTRLFSRLAVEIPNSHWLPRRLLLVRHGESEANVDRSQYSRIPDWKIPLTERGRAQALDCGRRLRNIIKNEKLYIYYSPYVRTQQTLAEVRKSLEESQVQGEREDERLREQEIGNFQPLDKMDRTWDERSNFGRSYYRFPDGESSVDVGDRVSTFFDSLFRERLELYSLSAGDPEDEDGPLNVPGEDDQNVLIISHGLLIRLFIARWFRVPLEAFETMRNPPNCSIVVLERQESARMVMTDISKKLFGSDPLLEMMKFDGKDSTKRYRHMFFSDHSGSFTPAEGV | not soluble
MAHHHHHHMRSNGAAHIGNNTFLAVTRDVTDTAFLFSSSFSPAEQLVRLPLSRKTRFLPHASLACGEAERSEYAESAARAGPPTKDVDVKEAVASAAAASTPLFCHSAHASPDGHKIAFISNVRRHHYIIDISVLPAAVCELEMPEVVQSVCWHTVAHHALCVLFISGDLTIYDTDQSYLGVIVPLYRRIALRPVIERRLADAEAAVHPSPSIPSTAPGTISPAKGATALDKEEVQSTRVKALAGKVSTTRLPPARQAHATTAEVAGFRSLVLHSGGGAIVAGSDIAHSPSYAVAERIDHDEMVPVSSADEVGAEGAASCPPIPKPVMLPTSQLDLVDMYALPPTESIPVILLLSSSGDVYAVHLGDDCLPVVATAAATDDGRVRTREEEVLRRAEVAAAPLSVEVYHLISGDSTGAAGDEAVAVGGCLVDEDAGTHAVFFLTANGLVKGAWVSKPDLLARHRVAHVRAVGSPNISFTLHLSGSLGARASLAPAVPSITHSVSMTLSQNVCVVRSGVAGETAFVMAFPRWDRRRQGWACWRPACADAREREREAAALPLLSTDAAPPSPVALRLPYDTRDSSIAVGCTELLLVPEVSTMDGLCERGSILVISLAAVLRSALYARCGKLGLHPSAGAGATSRLRDPHPAVLDLLNAVPECHRCWLRGVPEAEMSAATLNLVRRIEQLSGDVNRREMVQAQRRRRLVARVANLEGRVAEMDGMLAEWRQIILDGIVHRRGGDAFRTANARLRKVSTMLNELEQQL | not soluble
MAHHHHHHMRSTPHGPPPHPRTSSVRQDAITYPYAYAAPGRQAPSAGYEHDDNTTAEAGPTRRCVPGRGNRAMPASNTGPYPSDVNRTLSYPEPAPARTAAPAVAIMQPSSPFEQDHTPVVYTVQNTTTDTHRHETEYGGVLTIRTTTVTRTITERLVASDEDDDSSENGEVYLDDARNEASVPSLHR | not soluble
MAHHHHHHMRVRSLLLCIRRDPLQRAVDVAYASGMLLGSGSSRGTTHFSETTAFTSSNFAADLRGGRVGLAGDGGTKCDDRNGELVRGRIQFASRCAEGPFVGASPTVTSCAHIEGVVRQVECGYVGGDRVLQFIIEVEEVPASGGTPMRLPLAVRWRPGSEVAQNRMDEWQKEMERLVGRRVLASGRLQVEECFDSGSRRLYKTPSLVLPATSTVEMISLQELEC | not soluble
MAHHHHHHMSDCHWAVIRKAVEAEWDASIIPALAAYIEVPNQSPDFDPQWATNGLLTKAFTILINWMKGQNLLGLSYELMEVEGRTPFLLVEIAGTEPTKNTLLMYGHMDKQPPLHPWGEGLDPHKAVVRDGKLYGRGGADDGYALFSAITSVSVLQRHGIPHGRVIVVIEACEESGSFDLDYYMERCKERIGNVDLMICLDSACLNYSQVWLTTSLRGVTGGVLNVQTLTESMHSGVAGGVVPDTFRIARELLDRVEDSKTGKVLFPEAYCEIPDYVVKSMESMKAVPFKEQFAMADGVSAEPGDNVELALRNFWKPSLTVTGSNLPEPQIAGNVIRTHTSLKLSLRVPPLVDAEKATQAMAKVLVANPPYGAKVWFEPEVPGDGCATPELKPWLVTALNEGSKMAYGNPLAFQGMGASIPFISMLLKAYPQAQFVVTGVLGPKSNAHGPNEFLHIEYAKGLTFAISRVVAEHFSHTPK | soluble
MAHHHHHHMSEERVKILVLGPSRSGKSTIANFLAGLRETPTKGYYETQPLRILEVEIGLDNLKVGGRHVVGPKKAIVQLWDLGGSSKHQAGWQAVAANADGIIYVFNPEVRGAEKELVLWHKNFALDQDKLDERNNFKVRVPDKHSLVFSHHSSMPELAVGDNAIPSLPKQLRGVRAIETSLDYQSGNFKEAFDAMVEQIVVSRIVAEEDEILQKEREAGDAPRMVR | not soluble
MAHHHHHHMSGQAGKQVAPVKCKGWAVEKPALKWSTDAVRLSDVTVPAPDPTQIRVRVYAASINPVDWKRVMFPASGSGPGVAGSALKGFKGMHHKPPNYPYPYVVGVDGAGEVESVGRKVTGLKAGDRVMFHSSLTNAHGGSLCEYAVMEESVAVPIPADGARPFSYEEAAAIPCATWTAYVALFDKLRIEPGRSIFVDGASGAVGSCAVQLAHHMGLYVFASCSPSNADYVRSIGADQVLNYHDGIEMVDQILDATEGYGVDYYLAVTNTQDAESFTDALRFGGAVCLLSGVLIPNSNVLFRRQLSVHYVFLNGLHGHPLTRPQLRYIGDQVAKLYQSGAFRLDVEVLPFAEAAKALDRSATGNVNHKKLIVQVASP | soluble
MAHHHHHHMSIAKKRLAQERAEWRKDHPAGFSAKYSPMSDGKGLDIMKWICKIPGKKGGLWEGGEYPLTMEFTEDYPSKPPKCKFTTVLFHPNIYPSGTVCLSILNEDEDWKPSITIKQILLGIQDLLDNPNPNSPAQAEPFLLYQQDRDSYEKKVKKQAIEFRPKD | not soluble
